Columns and labels:
X activation by VIIa = molecular target: T1, X activation by VIIa (Homo sapiens, UniProt P08709); experiment: Factor X activation using liposomes; format: biochemical; details: 500 pM VIIa, 4 pM TF, 50 μM total lipid; liposomes
T1 construct: VIIa or factor VIIa means coagulation factor VIIa (active enzyme); purchased American Diagnostica
Protocol: A stringent test of TF:VIIa function is its ability to support the activation of its natural protein substrate, X. This requires that TF be incorporated into a suitable phospholipid membrane (i.e., one containing negatively charged phospholipids). […] The ability of various forms of TF to support the activation of X was compared under equivalent concentrations of enzyme (500 pM VIIa), cofactor (4 pM TF) and liposomes (50 μM total lipid).
Factor X activation using liposomes. […] At varying times, 20 μl aliquots were removed into a 96-well plate containing 100 μl Stop Buffer 1 (40 mM Mes-NaOH pH 5.8, 12 mM EDTA, 50 mM NaCl, 0.25% Triton X-100, 0.1% NaN3, 0.012% Antifoam C) at 4° C. After warming the stopped reactions to room temperature, Xa was detected by adding 60 μl of 1.5 mM Spectrozyme Xa in HBSAC plus 0.6 M Tricine-NaOH, pH 8.4 and quantifying change in A405. Amounts of Xa generated were determined by comparison to a standard curve with purified Xa.

VII = molecular target: T2, VII (Homo sapiens, UniProt P08709); experiment: Factor VII autoactivation; format: biochemical; details: 15 nM VII and TF; 37° C.; liposomes
T2 construct: Purified plasma-derived VII, X and factor Xa (Xa) were from Enzyme Research Laboratories; purchased Enzyme Research Laboratories; host or cells: plasma
Protocol: An additional function of TF is to promote the autoactivation of VII in a reaction that is dependent on TF surface density.
Factor VII autoactivation. Rates of VII autoactivation were measured essentially as described. Equimolar concentrations of VII and TF (15 nM each) were incubated in HBSAC at 37° C. […] A 20 μl aliquot of 5 mM Chromozym t-PA substrate was added and the change in A405 was monitored at ambient temperature. Two-dimensional second-order rate constants (k2D) were determined as described.

VIIa = molecular target: T3, VIIa (Homo sapiens, UniProt P08709); experiment: Kd for VIIa binding to TF (X activation rate as readout); details: purified proteins; membTF in PCPS liposomes; sTF-5AA-(His)6 plus NiPCPS liposomes; read-out: VIIa binding Kd
T3 construct: VIIa or factor VIIa means coagulation factor VIIa (active enzyme); purchased American Diagnostica
T3 sequence (P08709 61-212): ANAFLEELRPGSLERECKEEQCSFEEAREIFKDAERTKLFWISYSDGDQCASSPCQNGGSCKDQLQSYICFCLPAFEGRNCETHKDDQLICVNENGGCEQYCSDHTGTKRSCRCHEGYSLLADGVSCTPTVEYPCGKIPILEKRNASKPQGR
T3 sequence (P08709 213-466): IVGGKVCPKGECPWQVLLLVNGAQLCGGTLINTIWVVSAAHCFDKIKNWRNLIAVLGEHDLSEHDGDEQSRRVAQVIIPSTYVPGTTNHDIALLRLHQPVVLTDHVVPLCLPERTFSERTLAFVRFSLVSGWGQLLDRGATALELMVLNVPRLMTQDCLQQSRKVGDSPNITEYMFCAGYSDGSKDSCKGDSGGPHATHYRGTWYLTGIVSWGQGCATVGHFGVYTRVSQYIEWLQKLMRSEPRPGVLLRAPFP
Protocol: When VIIa binds to TF, its rate of X activation increases dramatically, so this can be used as a convenient readout for TF:VIIa complex formation. […] Therefore, when the isolated TF ectodomain was attached to the membrane surface via interaction with metal-chelating lipids, its VIIa binding ability was indistinguishable from membTF that spanned the lipid bilayer.
Measurement of the Kd for VIIa binding to TF—The binding affinity of VIIa for various forms of TF was measured using the TF-dependent increase in the rate of X activation as the readout for TF:VIIa complex formation. Activation of X by the TF:VIIa complex was measured by adapting the continuous chromogenic assay of Fiore et al.. Reaction mixtures containing Vila and either rTF/PCPS or sTF+SUVs were prepared in HBSAC. Reactions were initiated by adding a mixture of X and the chromogenic substrate, S-2222, in a flat bottom, 96-well plate. Change in A405 was monitored at ambient temperature in a VERSAmax microplate reader (Molecular Devices), sampling every 15 sec for 20 min. Initial rates of X activation were determined by fitting a second-order polynomial to the A405 data as described. The quadratic ligand binding equation was fit to the rate data as described to derive apparent Kd values for the binding of VIIa to TF. For experiments using relipidated rTF, typical reaction mixtures containing 0.25 μM VIIa and 20 nM X in HBSAC were incubated with increasing concentrations of rTF/PCPS.

T2 sequence (P08709 61-466, one chain of several): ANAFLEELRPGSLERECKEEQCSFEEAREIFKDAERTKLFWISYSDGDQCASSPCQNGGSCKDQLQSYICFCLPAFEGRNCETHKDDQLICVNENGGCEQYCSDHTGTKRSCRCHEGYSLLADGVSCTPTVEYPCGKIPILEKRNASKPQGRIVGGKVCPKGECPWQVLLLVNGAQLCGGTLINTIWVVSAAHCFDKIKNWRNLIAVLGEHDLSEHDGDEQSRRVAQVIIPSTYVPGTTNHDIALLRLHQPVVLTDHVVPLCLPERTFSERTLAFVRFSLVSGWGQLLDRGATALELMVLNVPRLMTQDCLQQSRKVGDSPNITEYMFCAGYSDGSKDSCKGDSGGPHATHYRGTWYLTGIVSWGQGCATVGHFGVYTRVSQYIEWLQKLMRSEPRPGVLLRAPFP

B1: membTF: recombinant membrane-bound tissue factor (protein, UniProt P13726 1-295, looked up)
chain: METPAWPRVPRPETAVARTLLLGWVFAQVAGASGTTNTVAAYNLTWKSTNFKTILEWEPKPVNQVYTVQISTKSGDWKSKCFYTTDTECDLTDEIVKDVKQTYLARVFSYPAGNVESTGSAGEPLYENSPEFTPYLETNLGQPTIQSFEQVGTKVNVTVEDERTLVRRNNTFLSLRDVFGKDLIYTLYYWKSSSSGKKTAKTNTNEFLIDVDKGENYCFSVQAVIPSRTVNRKSTDSPVECMGQEKGEFREIFYIIGAVVFVVIILVIILAISLHKCRKAGVGQSWKENSPLNVS
modifications: full-length
X activation by VIIa
  Km: 0.059 ± 0.00088 µM
  X activation kcat: 3.5 ± 0.38 s⁻¹
VII
  VII autoactivation k2D: 3.4 (±0.15) × 10^7 m^2 mol^−1 s^−1
VIIa
  Kd: 0.01 nM

Reference: patent US20080260858A1, “Universal Procoagulant” (The Board of Trustees of the University of Illnois, priority 2005, published 2008)
